{
  "source": "patent US20230310712A1",
  "about": "“IMPLANTABLE CELL CHAMBER DEVICE AND USES THEREOF” (Takeda Pharmaceutical Company Limited, priority 2020, published 2023)",
  "key": {"[1]": {"test": "HPLC analysis of tacrolimus solvent-extracted from electrospun nPET-PBT", "assay_type": "physicochemical", "conditions": "HPLC after solvent extraction", "protocol": "To reduce inflammation due to implantation trauma, the cell scaffold device can be loaded with tacrolimus (FK506). To assess cell seeding and biomolecule secretion on tacrolimus-treated materials, electrospun nPET-PBT was loaded with tacrolimus by dissolving 0% tacrolimus, 2% tacrolimus, or 4% tacrolimus to the polymer solution prior to electrospinning.\nIncorporation of tacrolimus into nPET-PBT was assessed by solvent extracting the tacrolimus from the electrospun materials. The solvent extracted solution was then analyzed by high performance liquid chromatography (HPLC)."}, "[2]": {"tested_on": "vedolizumab/Luc-ARPE19 cells", "test": "Cell growth and vedolizumab secretion on tacrolimus-loaded nPET-PBT", "assay_type": "cell-based, human", "conditions": "200,000 cells/condition, three days, fluorescence imaging", "protocol": "Cells were grown on tacrolimus-loaded nPET-PBT discs over three days, after which the surfaces of the nPET-PBT material were visually inspected by fluorescence imaging. […] Cells were further assessed three weeks post-seeding."}, "[3]": {"test": "Plasma concentration of adalimumab or ustekinumab in implanted Nude mice (human IgG Fc ELISA)", "assay_type": "in vivo, mouse", "conditions": "for day plateau was reached: nPET-PBT/PET/nPU cell chamber device; for average plasma concentration plateau: nPET-PBT/PET/nPU cell chamber device with antibody-expressing ARPE19 cells, subcutaneous", "protocol": "To assess the ability to deliver biologics into the blood flow and the applicability of the devices to other biologics, secretion of adalimumab or ustekinumab from the nPET-PBT/PET/nPU cell chamber device described in Example 10 was assessed in vivo. The nPET-PBT/PET/nPU cell chamber device was seeded with ARPE19 cells stably expressing adalimumab or ustekinumab (see also Example 8) and subcutaneously implanted in Nude mice. Mice were assessed by blood collection over the course of >100 days to measure the plasma concentration of each antibody over time. Human IgG concentration in plasma was tested by an ELISA assay which detected the human IgG Fc region. […] (Day 1-Day 60: N=5, Day 61-Day 81: N=4, Day 82-92: N=3, Day 93-Day 108: N=2). Similarly, the average ustekinumab plasma concentration reached a plateau of approximately 60-110 μg/mL around Day 20 and maintained a steady-state over 80 days (N=5)."}, "[4]": {"biological_target": "human TNFα (Homo sapiens, UniProt P01375)", "sequence (P01375 77-233 limits assumed)": "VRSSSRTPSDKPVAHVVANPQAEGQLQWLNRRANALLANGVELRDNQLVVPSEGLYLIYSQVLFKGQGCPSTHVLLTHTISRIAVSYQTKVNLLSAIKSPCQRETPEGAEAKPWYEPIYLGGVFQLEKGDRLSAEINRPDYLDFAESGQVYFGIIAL", "test": "Neutralization of human TNFα activity in L-929 cells (CCK-8 viability)", "assay_type": "cell-based", "conditions": "antibody secreted by ARPE-19 cells in culture medium, human TNFα 1 ng/mL", "protocol": "Adalimumab is an anti-TNFα antibody. To assay for adalimumab activity in the cell culture medium of adalimumab/ARPE-19 cells, L-929 cells were seeded into a 96 well cell culture plate at the density of 5,000 cells/well in DMEM supplemented with 10% FBS. After 20-hour incubation, the cells were sensitized with Actinomycin D (2 μg/mL) for two hours. Then the cells were incubated with culture medium comprising antibodies secreted by the ARPE-19 cells in the presence of human TNFα (1 ng/mL). After another 20-hour incubation the cells were evaluated for cell viability by a CCK-8 assay to test for neutralization of human TNFα activity."}},
  "data": [
    {"molecule": "C=CC[C@@H]1/C=C(\\C)C[C@H](C)C[C@H](OC)[C@H]2O[C@@](O)(C(=O)C(=O)N3CCCC[C@H]3C(=O)O[C@H](/C(C)=C/[C@@H]3CC[C@@H](O)[C@H](OC)C3)[C@H](C)[C@@H](O)CC1=O)[C@H](C)C[C@@H]2OC", "note": "[tacrolimus]", "values": [
      {"measurement": "drug degradation following loading onto electrospun nPET-PBT", "setting": "[1]", "value": "no drug degradation"},
      {"measurement": "effect on cell proliferation or growth", "setting": "[2]", "value": "no detectable effect on cell proliferation or growth"}
    ]},
    {"molecule": "adalimumab", "values": [
      {"measurement": "day plateau was reached", "setting": "[3]", "value": "~25", "unit": "days"},
      {"measurement": "average plasma concentration plateau", "setting": "[3]", "value": "50 to 100", "unit": "µg/mL"},
      {"measurement": "TNFα neutralizing activity", "setting": "[4]", "value": "retained TNFα neutralizing activity"}
    ]},
    {"molecule": "ustekinumab: anti-IL-12/IL-23 antibody", "values": [
      {"measurement": "day plateau was reached", "setting": "[3]", "value": "~20", "unit": "days"},
      {"measurement": "average plasma concentration plateau", "setting": "[3]", "value": "60 to 110", "unit": "µg/mL"}
    ]}
  ]
}
